Experimental data: article PMC3524375

biological target: NADPH-cytochrome P450 reductase (UniProt P00388)
Sequence of UniProt P00388 (P00388 whole entry): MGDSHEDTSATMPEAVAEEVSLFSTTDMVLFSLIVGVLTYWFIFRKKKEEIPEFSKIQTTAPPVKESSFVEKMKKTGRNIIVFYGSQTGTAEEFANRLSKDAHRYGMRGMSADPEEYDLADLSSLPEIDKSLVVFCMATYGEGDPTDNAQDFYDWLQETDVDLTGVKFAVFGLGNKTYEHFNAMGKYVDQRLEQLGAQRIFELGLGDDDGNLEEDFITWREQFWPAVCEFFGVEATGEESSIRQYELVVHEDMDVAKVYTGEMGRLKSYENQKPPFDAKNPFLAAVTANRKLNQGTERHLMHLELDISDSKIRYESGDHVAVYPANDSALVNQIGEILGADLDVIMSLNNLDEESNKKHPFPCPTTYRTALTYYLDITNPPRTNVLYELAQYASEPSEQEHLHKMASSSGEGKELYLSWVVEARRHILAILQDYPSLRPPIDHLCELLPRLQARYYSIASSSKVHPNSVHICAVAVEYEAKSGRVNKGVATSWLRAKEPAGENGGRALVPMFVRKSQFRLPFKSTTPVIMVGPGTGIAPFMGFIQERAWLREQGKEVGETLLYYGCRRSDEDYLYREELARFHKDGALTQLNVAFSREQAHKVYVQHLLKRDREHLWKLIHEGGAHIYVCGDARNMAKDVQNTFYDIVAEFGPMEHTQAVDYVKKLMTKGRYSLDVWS

Substance	% of CPR-dependent versus dithionite-dependent reduced P450-CO spectrum [%]
CYP3A4 Y430F mutant (from UniProt P08684 1-503) (enzyme)	41
CYP3A4 Y430V mutant (from UniProt P08684 1-503) (enzyme)	22
human cytochrome P450 3A4, wild type, untreated (from UniProt P08684 1-503) (enzyme)	88
